Entries after “also recorded” stand apart in the source; their conditions may differ.

Here are results for two molecules from patent US20050272649A1, “Conjoint administration of morphogens and ACE inhibitors in treatment of chronic renal failure” (priority 2002, published 2005).

Test [1] concerns rat remnant kidney model (5/6 NPX). The test is described as follows: rat partial (5/6) nephrectomy chronic renal failure injury model. The class given is in vivo. From the text:
A rat partial (5/6) nephrectomy or rat remnant kidney model (RRKM) model was employed essentially as described (Vukicevic, et al. (1987) J. Bone Mineral Res. 2: 533, the entire content of which is incorporated herein by reference). Male Munich-Wistar rats (2-3 months old, weighing about 200-250 g) were subjected to renal mass ablation. Specifically, the right kidney is excised in conjunction with selective ligation of the left renal artery branches such that one third of the kidney remains perfused (5/6 NPX, see FIG. 12). Immediately following surgery, plasma creatinine and BUN levels rise dramatically due to the loss of renal mass and function. Over the next several weeks of this “acute” failure phase, plasma creatinine and BUN levels of surviving animals decline somewhat toward normal values but remain elevated. Renal function then appears to remain relatively constant or stable for a period of variable duration. After this point, the animals enter a period of chronic renal failure in which there is an essentially linear decline in renal function ending in death. For these reasons, animals are given 4 weeks of recovery prior to initiation of treatments.
Four weeks after nephrectomy, rats were divided into four treatment groups (see Table III), namely OP-1 (150 μg/kg body weight, 3×/week, by i.p. injection), Vehicle (20 mM arginine/150 mM NaCl, 0.1% Tween-80, pH 9.0, 1 ml/kg body weight, 3×/week, by i.p. injection), enalapril (100 mg/L in drinking water, 8-16 mg/kg body weight), and OP-1 with enalapril. For the first two groups (OP-1 and Vehicle), animals were sacrificed 14 weeks after nephrectomy. For the last two groups (enalapril, and OP-1 with enalapril), animals were sacrificed 26 weeks after nephrectomy. As surgical controls, rats were subjected to a “sham” operation in which the kidneys were decapsulated but no renal tissue was removed. Sham-treated animals were sacrificed 26 weeks after operation. None of the rats died in any group during this study. Systolic blood pressure, urine protein and/or glomerulosclerosis were monitored at intervals between 4 and 26 weeks post surgery.

The test system of test [2] is alloxan-induced diabetic Sprague-Dawley rats. The test is described as follows: Alloxan-induced diabetic nephropathy model. Conditions: for proteinuria level (in words) / serum creatinine level (in words): 12 weeks of treatment; for proteinuria level / serum creatinine level: 12 weeks; for proteinuria level: diabetic about 180; for serum creatinine level: diabetic about 115. The class given is in vivo, rat. As for the experimental part:
Similar to streptozotocin, alloxan kills pancreatic β cells and induces type I diabetes (for review, see Cheta et al. (1998) J Pediatr Endocrinol Metab 11: 11-9). Alloxan is also widely used to induce experimental diabetic nephropathy in animals (FIG. 25). Adult female Sprague-Dawley rats (weighing 200-250 g) were intraperitoneally injected with alloxan (70 mg/kg body weight) to induce hyperglycemia. Renal arteries were clamped just prior to injection to prevent direct nephrotoxicity, and then clamps were removed 5 minutes after injection. At week 16 when renal function declined, animals were treated with OP-1 (10 μg/kg body weight, 3×/week, or 30 μg/kg body weight, 1×/week), enalapril (100 mg/L in drinking water) or the combination of OP-1 and enalapril. Control animals without alloxan treatment were handled in all other ways like treated animals. The treatment duration was 12 weeks. All rats were sacrificed after […].

The mark [3] stands for this setting: summary of the nephrectomy model.

Turning to `CCOC(=O)[C@H](CCc1ccccc1)N[C@@H](C)C(=O)N1CCC[C@H]1C(=O)O` [enalapril, N-(1-ethoxycarbonyl-3-phenylpropyl)-L-ananyl-L-proline, reference compound], the “proteinuria level (late-stage)” value in test [1] (enalapril 100 mg/L drinking water with or without OP-1, up to 26 weeks after nephrectomy) was 105 mg/day. The “proteinuria level (in words)” value in test [2] is recorded as “reduces the proteinuria level; also recorded: reduce the preteinuria level”. In addition, the “serum creatinine level (in words)” value in test [2] is “decreases the serum creatinine level”; in test [2] (listed as elalapril) it was “reduces the serum creatinine level at a lesser degree”. Besides, the proteinuria level in test [2] (enalapril 100 mg/L drinking water alone, or combination of OP-1 and enalapril) is around 140 mg/dL/24 hr.

B1: OP-1: osteogenic protein-1 (OP-1, also known as BMP-7), morphogen of the OP/BMP family; OP-1 used interchangeably with sBMP-7 (protein)
chain: STGSKQRSQNRSKTPKNQEALRMANVAENSSSDQRQACKKHELYVSFRDLGWQDWIIAPEGYAAYYCEGECAFPLNSYMNATNHAIVQTLVHFINPETVPKPCCAPTQLNAISVLYFDDSSNVILKKYRNMVVRACGCH
B1: the blood pressure level result in test [1] (OP-1 150 μg/kg i.p. 3×/week from 4 weeks after nephrectomy, to 14 weeks) is on record as “did not dramatically lower the blood pressure level”. Besides, in test [1] (setting [3]), the glomerular filtration rate result is recorded as “improves glomerular filtration rate” and the glomerulosclerosis result was “reduces glomerulosclerosis”. Also, in test [2], the “proteinuria level (in words)” value was “reduces the proteinuria level; also recorded: reduce the preteinuria level” and the “serum creatinine level (in words)” value is given as “decreases the serum creatinine level; also recorded: dramatically reduces the serum creatinine level”. In test [2] (OP-1 10 μg/kg 3×/week), the serum creatinine level entry was “about 65 μmole/L” and the proteinuria level entry was “about 80 mg/dL/24 hr”. In test [2] (OP-1 30 μg/kg 1×/week), the serum creatinine level is around 55 µmol/L and the proteinuria level is around 110 mg/dL/24 hr.
